Test results from US20090238821A1.

Columns and labels:
Amyloid-beta 1-40 = Amyloid-beta 1-40 (UniProt P05067); test: BIAcore 2000, antibody captured by rabbit anti-mouse, peptide flowed
Amyloid-beta 1-42 = Amyloid-beta 1-42 (UniProt P05067); test: as above
human Aβ peptide (human) [1] = molecular target: human Aβ peptide (human) (UniProt P05067); test: BIAcore 2000, 266 against 4G8
human Aβ peptide (human) [2] = molecular target: human Aβ peptide (human) (UniProt P05067); test: plasma of APP V717F mice given 200 or 600 µg Mab 266 i.v., RIA (in vivo)
human Aβ peptide (human) [3] = molecular target: human Aβ peptide (human) (UniProt P05067); test: dialysis chamber, 1 mL human CSF against 1 µg Mab 266, 25 kD cutoff, 3 hours, ELISA
human Aβ peptide (human) [4] = molecular target: human Aβ peptide (human) (UniProt P05067); test: dialysis chamber, 1 mL human CSF against 1 µg Mab 266, 100 kD cutoff, 3 hours, ELISA
[5] = molecular target: β-amyloid peptide (1-42) conjugated to BSA (UniProt P05067); test: competitive ELISA on Aβ1-42-BSA, competitor of biotinylated Mu266 (0.3 µg/ml), first set
[6] = molecular target: β-amyloid peptide (1-42) conjugated to BSA (UniProt P05067); test: competitive ELISA on Aβ1-42-BSA, competitor of biotinylated Mu266 (0.3 µg/ml), second set
human Aβ peptide (human) [7] = molecular target: human Aβ peptide (human) (UniProt P05067); test: plasma of APP V717F mice given 1 mg Mab 266 i.v., non-denaturing gel, blot with biotin-3D6 and 125I-streptavidin against Aβ40/266 standards (in vivo)

Kd (Amyloid-beta 1-40)	Kd (Amyloid-beta 1-42)	fold difference in affinity between 266 and 4G8 (human Aβ peptide (human) [1])	concentration of Aβ bound to Mab 266 in plasma (human Aβ peptide (human) [2])	percent of Aβ peptide sequestered in the bottom chamber (human Aβ peptide (human) [3])	percent of Aβ peptide drawn across the membrane (human Aβ peptide (human) [4])	IC50 [5]	IC50 [6]	amount of Aβ peptide bound to Mab 266 in plasma (human Aβ peptide (human) [7])	Substance
23 nM	24 nM	–	–	–	–	–	–	–	Mab 4G8 (antibody)
4000 nM	4000 nM	6000 fold	> 100 ng/mL	50%	100%	4.7 µg/mL	3.87 µg/mL	100 ng/mL	mouse monoclonal antibody 266
